Data as given in PMC4674680, “An in cellulo-derived structure of PAK4 in complex with its inhibitor Inka1” (Nature Communications, 2015).
Values belong to the binder of their own block, whether it stands above or below them.

Assays:
[1] = target: T1, 6His–PAK4cat (PAK4 286–591) (human, UniProt O96013 286-591); test: kinase inhibition assay; 50 nM purified PAK4cat, 10 μM GST-Raf1S338 peptide, 10 μM ATP (γ32P), 25 mM HEPES pH 7.3, 50 mM KCl, 10 mM MgCl2, 30 °C, 20 min; inhibitor pre-incubated with the kinase on ice 10 min; values from the intercepts of the inhibition graphs; conditions: both partners purified
T1 construct: human PAK4 catalytic domain, residues 286–591, in pSY5 (His tagged); Residues 297–589 are seen in PDB 4XBU; also called purified PAK4; source: E. coli BL21-CodonPlus(DE3), purified (Ni-NTA; semi-automated Akta system for crystallization)

[2] = target: T1, 6His–PAK4cat (PAK4 286–591); test: crystal structure; in-vitro crystals, hanging drop, 6His–PAK4cat 5 mg/ml with 15-fold molar excess of peptide and two times molar excess of ATP, 0.1 M Tris–HCl pH 8.5, 12% PEG 8000, 25 °C, space group P4_(1)2_(1)2; conditions: both partners purified

T1 sequence (O96013 286-591): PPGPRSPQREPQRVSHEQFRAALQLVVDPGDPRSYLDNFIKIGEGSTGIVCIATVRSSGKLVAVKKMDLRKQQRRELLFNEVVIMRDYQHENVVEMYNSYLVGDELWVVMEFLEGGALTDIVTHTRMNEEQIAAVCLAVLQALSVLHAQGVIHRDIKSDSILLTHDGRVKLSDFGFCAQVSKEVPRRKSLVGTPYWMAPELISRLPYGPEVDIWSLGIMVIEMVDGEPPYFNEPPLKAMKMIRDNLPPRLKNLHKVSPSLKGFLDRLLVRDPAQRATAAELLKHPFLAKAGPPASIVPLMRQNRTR

- Ki [1]: 30 nM
B1: GST-iBox (Inka1 166–203) (domain or fragment)
chain: EAEDWTAALLNRGRSRQPLVLGDNCFADLVHNWMELPE
modifications: GST carrier left out. Limits 166-203 are the paper's, taken from the 4XBR fusion: Flag/SGS 1-12, iBox 13-50, EF linker 51-52, PAK4 278-591 from 53 (12+38+2+314=366). Entity position = paper number …

- binding result [2]: binds
B2: iBox 23mer synthetic peptide (peptide)
peptide: AEDWTAALLNRGRSRQPLVLGDW
notes: synthetic peptide of the amino-terminal part of the human Inka1 iBox (iBox is 166–203); residues 178–189 are seen in the structure; also called iBox24; synthetic iBox 24mer peptide; source: synthetic peptide
